Laboratory results as given in patent publication US20260193326A1.

Experiments:
Test in all cases: SPR, AAV on CM5 chip
[1] = target: AAV5 (adeno-associated virus serotype 5)
[2] = target: AAV8 (adeno-associated virus serotype 8)
[3] = target: AAV9 (adeno-associated virus serotype 9)

B1: A4-D6 (bispecific antibody)
chain: VQLQESGGGLVQTGGSLRLSCAASGRAFSLNTMGWYRQAPGKWRELVATVTRGGSTNYAGSVKGRFTISRDNAKNTVYLQMNNLRPEDTAVYYCHVDEVRESSWTTSNLWGQGTQVTVSSGGGGSGGGGSGGGGSVQLQESGGGLVQTGGSLRLSCAASGRAFSLNTMGWYRQAPGKWRELVATVTRGGSTNYAGSVKGRFTISRDNAKNTVYLQMNNLRPEDTAVYYCHVDEVRESSWTTSNLWGQGTQVTVSSGGGGSGGGGSGGGGSVQLQESGGGLVQPGGSLRLSCAASGSIFTINSMGWYRQAPGKWRELVATVTRGGNTNYANSVKGRFTISRDNAKNTVYLQMNTLRPEDTAVYYCHLDEVRDSSWTTSNLWGQGTQVTVSSGGGGSGGGGSGGGGSVQLQESGGGLVQPGGSLRLSCAASGSIFSINSMGWYRQAPGKWRELVATVTRGGSTNYANSVKGRFTISRDNAKNTVYLQMNTLRPEDTAVYYCHLDEVRDSSWTTSNLWGQGTQVTVSS
Q: Which results are given for B1?
A: Kd [1]: 0.273 nM; koff [1]: 1.18e-05 s⁻¹; kon [1]: 43300 M⁻¹ s⁻¹; Kd [2]: 1.02 nM; koff [2]: 1.63e-05 s⁻¹; kon [2]: 16000 M⁻¹ s⁻¹; Kd [3]: 0.155 nM; koff [3]: 3.4e-06 s⁻¹; kon [3]: 21900 M⁻¹ s⁻¹

B2: A4-D7 (bispecific antibody)
chain: VQLQESGGGLVQTGGSLRLSCAASGRAFSLNTMGWYRQAPGKWRELVATVTRGGSTNYAGSVKGRFTISRDNAKNTVYLQMNNLRPEDTAVYYCHVDEVRESSWTTSNLWGQGTQVTVSSGGGGSGGGGSGGGGSVQLQESGGGLVQPGGSLRLSCAASGSIFTINSMGWYRQAPGKWRELVATVTRGGNTNYANSVKGRFTISRDNAKNTVYLQMNTLRPEDTAVYYCHLDEVRDSSWTTSNLWGQGTQVTVSSGGGGSGGGGSGGGGSVQLQESGGGLVQPGGSLRLSCAASGSIFSINSMGWYRQAPGKWRELVATVTRGGSTNYANSVKGRFTISRDNAKNTVYLQMNTLRPEDTAVYYCHLDEVRDSSWTTSNLWGQGTQVTVSSGGGGSGGGGSGGGGSVQLQESGGGLVQTGGSLRLSCAASGRAFSLNTMGWYRQAPGKWRELVATVTRGGSTNYAGSVKGRFTISRDNAKNTVYLQMNNLRPEDTAVYYCHVDEVRESSWTTSNLWGQGTQVTVSS
Q: Which results are given for B2?
A: Kd [1]: 0.216 nM; koff [1]: 4.9e-06 s⁻¹; kon [1]: 22700 M⁻¹ s⁻¹; Kd [2]: 1.41 nM; koff [2]: 1.79e-05 s⁻¹; kon [2]: 12700 M⁻¹ s⁻¹; Kd [3]: 0.658 nM; koff [3]: 9.4e-06 s⁻¹; kon [3]: 14300 M⁻¹ s⁻¹

B3: A4-D8 (bispecific antibody)
chain: VQLQESGGGLVQPGGSLRLSCAASGSRFSLNTMGWYRQAPGKQRELVATVTRGGSTNYADSVKGRFTISRDNAKNTVYLQMNSLRPEDTAVYYCHVDELRESGWTTSNLWGQGTQVTVSSGGGGSGGGGSGGGGSVQLQESGGGLVQPGGSLRLSCAASGSRFSLNTMGWYRQAPGKQRELVATVTRGGSTNYADFVKGRFTISRDNAKNTVYLQMNSLRPEDTAVYYCHVDELRESGWTTSNLWGQGTQVTVSSGGGGSGGGGSGGGGSVQLQESGGGLVHSGGSLRLSCAASGSMFSLNTMGWYRQAPGKQRELVATITRGGGTSYADSVKGRFTISRDNAKNTVYLQMNSLRPEDTAVYYCHVDELRQSSWTTSNLWGQGTQVTVSSGGGGSGGGGSGGGGSVQLQESGGGLVQPGGSLRLSCAASGSRFSLNTMGWYRQAPGKQRELVATVTRGGSTNYADFVKGRFTISRDNAKNTVYLQMNSLRPEDTAVYYCHVDELRESGWTTSNLWGQGTQVTVSS
Q: B3 was tested. Which Kd [1] did it give?
A: 1.49 nM

Q: What about the koff [1] of the same binder?
A: 1.96e-05 s⁻¹

Q: What about the kon [1] of the same binder?
A: 13200 M⁻¹ s⁻¹

Q: And the Kd [2]?
A: 0.228 nM

Q: What about the koff [2] of the same binder?
A: 1.1e-05 s⁻¹

Q: And the kon [2]?
A: 48200 M⁻¹ s⁻¹

Q: What about the Kd [3] of the same binder?
A: 0.313 nM

Q: What about the koff [3] of the same binder?
A: 1.32e-05 s⁻¹

Q: What about the kon [3] of the same binder?
A: 42200 M⁻¹ s⁻¹

B4: A4-D9 (bispecific antibody)
chain: VQLQESGGGLVHSGGSLRLSCAASGSMFSLNTMGWYRQAPGKQRELVATITRGGGTSYADSVKGRFTISRDNAKNTVYLQMNSLRPEDTAVYYCHVDELRQSSWTTSNLWGQGTQVTVSSGGGGSGGGGSGGGGSVQLQESGGGLVQPGGSLRLSCAASGSRFSLNTMGWYRQAPGKQRELVATVTRGGSTNYADFVKGRFTISRDNAKNTVYLQMNSLRPEDTAVYYCHVDELRESGWTTSNLWGQGTQVTVSSGGGGSGGGGSGGGGSVQLQESGGGLVQPGGSLRLSCAASGSRFSLNTMGWYRQAPGKQRELVATVTRGGSTNYADFVKGRFTISRDNAKNTVYLQMNSLRPEDTAVYYCHVDELRESGWTTSNLWGQGTQVTVSSGGGGSGGGGSGGGGSVQLQESGGGLVQTGGSLRLSCAASGRAFSLNTMGWYRQAPGKWRELVATVTRGGSTNYAGSVKGRFTISRDNAKNTVYLQMNNLRPEDTAVYYCHVDEVRESSWTTSNLWGQGTQVTVSS
Q: For B4, which Kd [1] is on record?
A: 0.1 nM

Q: And the koff [1]?
A: 2.3e-06 s⁻¹

Q: What about the kon [1] of the same binder?
A: 22900 M⁻¹ s⁻¹

Q: And the Kd [2]?
A: 0.318 nM

Q: And the koff [2]?
A: 9.9e-06 s⁻¹

Q: What about the kon [2] of the same binder?
A: 31100 M⁻¹ s⁻¹

Q: What about the Kd [3] of the same binder?
A: 0.745 nM

Q: And the koff [3]?
A: 1.94e-05 s⁻¹

Q: And the kon [3]?
A: 26000 M⁻¹ s⁻¹

B5: A4-D1 (VHH)
chain: VQLQESGGGLAQAGGSLRLSCAASGRGFSINTMGWYRQAPGKQRELVAAVTRGGTTNYADSVKGRFTISRDNAKNTVYLQMNSLRPEDTAVYYCHVDEVRQSSWTTSNLWGQGTQVTVSSGGGGSGGGGSGGGGSVQLQESGGGLAQAGGSLRLSCAASGRGFSINTMGWYRQAPGKQRELVAAVTRGGTTNYADSVKGRFTISRDNAKNTVYLQMNSLRPEDTAVYYCHVDEVRQSSWTTSNLWGQGTQVTVSSGGGGSGGGGSGGGGSVQLQESGGGLAQAGGSLRLSCAASGRGFSINTMGWYRQAPGKQRELVAAVTRGGTTNYADSVKGRFTISRDNAKNTVYLQMNSLRPEDTAVYYCHVDEVRQSSWTTSNLWGQGTQVTVSSGGGGSGGGGSGGGGSVQLQESGGGLAQAGGSLRLSCAASGRGFSINTMGWYRQAPGKQRELVAAVTRGGTTNYADSVKGRFTISRDNAKNTVYLQMNSLRPEDTAVYYCHVDEVRQSSWTTSNLWGQGTQVTVSS
Q: What does the source list for B5?
A: Kd [1]: 0.0576 nM; koff [1]: 2.2e-06 s⁻¹; kon [1]: 38200 M⁻¹ s⁻¹; Kd [2]: 0.0543 nM; koff [2]: 1.81e-05 s⁻¹; kon [2]: 334000 M⁻¹ s⁻¹; Kd [3]: 0.0533 nM; koff [3]: 3.1e-06 s⁻¹; kon [3]: 58200 M⁻¹ s⁻¹

B6: A4-D2 (VHH)
chain: VQLQESGGGLVQAGGSLRLSCAASGRGFSINTMGWYRQAPGKQRELVAAVTRGGTTNYADSVKGRFTISRDNAKNTVYLQMNSLRPEDTAVYYCHVDEVRQSSWTTSNLWGQGTQVTVSSGGGGSGGGGSGGGGSVQLQESGGGLVQAGGSLRLSCAASGRGFSINTMGWYRQAPGKQRELVAAVTRGGTTNYADSVKGRFTISRDNAKNTVYLQMNSLRPEDTAVYYCHVDEVRQSSWTTSNLWGQGTQVTVSSGGGGSGGGGSGGGGSVQLQESGGGLVQAGGSLRLSCAASGRGFSINTMGWYRQAPGKQRELVAAVTRGGTTNYADSVKGRFTISRDNAKNTVYLQMNSLRPEDTAVYYCHVDEVRQSSWTTSNLWGQGTQVTVSSGGGGSGGGGSGGGGSVQLQESGGGLVQAGGSLRLSCAASGRGFSINTMGWYRQAPGKQRELVAAVTRGGTTNYADSVKGRFTISRDNAKNTVYLQMNSLRPEDTAVYYCHVDEVRQSSWTTSNLWGQGTQVTVSS
Q: With B6 as the binder, how does the Kd [1] read?
A: 0.0996 nM

Q: And the koff [1]?
A: 5.7e-06 s⁻¹

Q: What about the kon [1] of the same binder?
A: 57200 M⁻¹ s⁻¹

Q: And the Kd [2]?
A: 0.0821 nM

Q: And the koff [2]?
A: 3.6e-06 s⁻¹

Q: And the kon [2]?
A: 43900 M⁻¹ s⁻¹

Q: And the Kd [3]?
A: 0.304 nM

Q: What about the koff [3] of the same binder?
A: 9e-06 s⁻¹

Q: And the kon [3]?
A: 29600 M⁻¹ s⁻¹

B7: A4-D3 (VHH)
chain: VQLQESGGGLAQAGGSLRLSCAASGRGFSINTMGWYRQAPGKQRELVAAVTRGGTTNYADSVKGRFTISRDNAKNTVYLQMNSLRPEDTAVYYCHVDEVRQSSWTTSNLWGQGTQVTVSSGGGGSGGGGSGGGGSVQLQESGGGLAQAGGSLRLSCAASGRGFSINTMGWYRQAPGKQRELVAAVTRGGTTNYADSVKGRFTISRDNAKNTVYLQMNSLRPEDTAVYYCHVDEVRQSSWTTSNLWGQGTQVTVSSGGGGSGGGGSGGGGSVQLQESGGGLAQAGGSLRLSCAASGRGFSINTMGWYRQAPGKQRELVAAVTRGGTTNYADSVKGRFTISRDNAKNTVYLQMNSLRPEDTAVYYCHVDEVRQSSWTTSNLWGQGTQVTVSSGGGGSGGGGSGGGGSVQLQESGGGLVQPGGSLRLSCAASGRGFSINTMGWYRQAPGKQRELVAAVTRGGTTNYADSVKGRFTISRDNAKNTVYLQMNSLRPEDTAVYYCHVDEVRQSSWTTSNLWGQGTQVTVSS
Q: Which results are given for B7?
A: Kd [1]: 0.209 nM; koff [1]: 3.6e-06 s⁻¹; kon [1]: 17300 M⁻¹ s⁻¹; Kd [2]: 0.0363 nM; koff [2]: 1.5e-06 s⁻¹; kon [2]: 41400 M⁻¹ s⁻¹; Kd [3]: 0.0707 nM; koff [3]: 3.2e-06 s⁻¹; kon [3]: 45300 M⁻¹ s⁻¹

B8: A4-D4 (VHH)
chain: VQLQESGGGLAQAGGSLRLSCAASGRGFSINTMGWYRQAPGKQRELVAAVTRGGTTNYADSVKGRFTISRDNAKNTVYLQMNSLRPEDTAVYYCHVDEVRQSSWTTSNLWGQGTQVTVSSGGGGSGGGGSGGGGSVQLQESGGGLVQPGGSLRLSCAASGRGFSINTMGWYRQAPGKQRELVAAVTRGGTTNYADSVKGRFTISRDNAKNTVYLQMNSLRPEDTAVYYCHVDEVRQSSWTTSNLWGQGTQVTVSSGGGGSGGGGSGGGGSVQLQESGGGLAQAGGSLRLSCAASGRGFSINTMGWYRQAPGKQRELVAAVTRGGTTNYADSVKGRFTISRDNAKNTVYLQMNSLRPEDTAVYYCHVDEVRQSSWTTSNLWGQGTQVTVSSGGGGSGGGGSGGGGSVQLQESGGGLAQAGGSLRLSCAASGRGFSINTMGWYRQAPGKQRELVAAVTRGGTTNYADSVKGRFTISRDNAKNTVYLQMNSLRPEDTAVYYCHVDEVRQSSWTTSNLWGQGTQVTVSS
Q: What does the source list for B8?
A: Kd [1]: 0.657 nM; koff [1]: 1.73e-05 s⁻¹; kon [1]: 26300 M⁻¹ s⁻¹; Kd [2]: 0.0802 nM; koff [2]: 1.7e-06 s⁻¹; kon [2]: 21200 M⁻¹ s⁻¹; Kd [3]: 0.073 nM; koff [3]: 2.1e-06 s⁻¹; kon [3]: 28800 M⁻¹ s⁻¹

B9: A4-D5 (protein)
chain: VQLQESGGGLVQPGGSLRLSCVASGSSFSINTMGWYRRAPGKQRELVATVTRDGSTNYANSVKGRFTISRDNAKNTVYLQMNSLRPEDTAVYYCHVDEVRQSSWTTSNLWGQGTQVTVSSGGGGSGGGGSGGGGSVQLQESGGGLVQPGGSLRLSCVASGSSFSINTMGWYRRAPGKQRELVATVTRDGSTNYANSVKGRFTISRDNAKNTVYLQMNSLRPEDTAVYYCHVDEVRQSSWTTSNLWGQGTQVTVSSGGGGSGGGGSGGGGSVQLQESGGGLVQPGGSLRLSCVASGSSFSINTMGWYRQAPGKQRELVATVTRDGSTNYANSVKGRFTISRDNAKNTVYLQMNSLRPEDTAVYYCHVDEVRQSSWTTSNLWGQGTQVTVSSGGGGSGGGGSGGGGSVQLQESGGGLVQPGGSLRLSCVASGSSFSINTMGWYRRAPGKQRELVATVTRDGSTNYANSVKGRFTISRDNAKNTVYLQMNSLRPEDTAVYYCHVDEVRQSSWTTSNLWGQGTQVTVSS
Q: For B9, which Kd [1] is on record?
A: 0.318 nM

Q: And the koff [1]?
A: 1.34e-05 s⁻¹

Q: What about the kon [1] of the same binder?
A: 42100 M⁻¹ s⁻¹

Q: And the Kd [2]?
A: 0.0836 nM

Q: And the koff [2]?
A: 5e-06 s⁻¹

Q: What about the kon [2] of the same binder?
A: 59800 M⁻¹ s⁻¹

Q: What about the Kd [3] of the same binder?
A: 0.117 nM

Q: What about the koff [3] of the same binder?
A: 4.3e-06 s⁻¹

Q: And the kon [3]?
A: 36900 M⁻¹ s⁻¹
